{
  "source": "patent US20260240959A1",
  "about": "“METHODS FOR IN VIVO EDITING OF KLKB1” (INTELLIA THERAPEUTICS, INC., priority 2022, published 2026)",
  "molecules": {"B1": {"name": "G013901: cynomolgus specific KLKB1 guide RNA (SEQ ID NO: 409); dosed as LNP formulation with Cas9 mRNA (nucleic acid)", "guide": "mG*mG*mA*rUrUrArCrArUrArUrGrGrGrArCrArCrArArGrUrUrUrUrArGrAmGmCmUmAmGmAmAmAmUmAmGmCrArArGrUrUrArArArArUrArArGrGrCrUrArGrUrCrCrGrUrUrArUrCrAmAmCmUmUmGmAmAmAmAmAmGmUmGmGmCmAmCmCmGmAmGmUmCmGmGmUmGmCmU*mU*mU*mU"}},
  "key": {"plasma kallikrein": {"tested_on": "plasma kallikrein", "test": "Plasma kallikrein activity in cynomolgus monkeys", "type": "in vivo, cynomolgus monkey", "conditions": "n=3, 6 mpk", "method": "(§1) Cynomolgus monkeys were treated in cohorts of n=3. This study was conducted with LNP formulations according to Example 1. […]. Animals were dosed at 1.5, 3, or 6 mg per kg doses based on total RNA cargo. Indel formation (percent editing) was measured by NGS. Total kallikrein activity and plasma kallikrein protein level were measured as described above. […]"}, "[1]": {"tested_on": "plasma kallikrein protein", "test": "Plasma kallikrein protein level in cynomolgus monkeys", "type": "in vivo, cynomolgus monkey", "conditions": "n=3", "method": "as §1"}},
  "note": "In the oligonucleotide strings, read from the 5' end, every base follows the letter of its sugar. An asterisk marks phosphorothioate; unmarked linkages are phosphodiester. Other units and linkages are bracketed, terminal groups are in braces. A string of capitals states the bases alone. m = 2'-O-methyl; r = 2'-OH (RNA)",
  "data": [
    {"molecule": "B1", "values": [
      {"measurement": "Kallikrein Activity (% of basal activity), Mean", "setting": "plasma kallikrein; Day 347", "result": "2.9 % of basal activity"},
      {"measurement": "Kallikrein Activity (% of basal activity), Mean", "setting": "plasma kallikrein; Day 365", "result": "3.4 % of basal activity"},
      {"measurement": "Plasma Kallikrein Protein Levels (% of basal level), Mean", "setting": "[1]; 1.5 mpk, Day 14", "result": "28.8 % of basal level"},
      {"measurement": "Plasma Kallikrein Protein Levels (% of basal level), Mean", "setting": "[1]; 1.5 mpk, Day 28", "result": "32.7 % of basal level"},
      {"measurement": "Plasma Kallikrein Protein Levels (% of basal level), Mean", "setting": "[1]; 1.5 mpk, Day 42", "result": "31.5 % of basal level"},
      {"measurement": "Plasma Kallikrein Protein Levels (% of basal level), Mean", "setting": "[1]; 1.5 mpk, Day 56", "result": "30.1 % of basal level"},
      {"measurement": "Plasma Kallikrein Protein Levels (% of basal level), Mean", "setting": "[1]; 1.5 mpk, Day 70", "result": "29.8 % of basal level"},
      {"measurement": "Plasma Kallikrein Protein Levels (% of basal level), Mean", "setting": "[1]; 1.5 mpk, Day 84", "result": "38.7 % of basal level"},
      {"measurement": "Plasma Kallikrein Protein Levels (% of basal level), Mean", "setting": "[1]; 1.5 mpk, Day 105", "result": "47 % of basal level"},
      {"measurement": "Plasma Kallikrein Protein Levels (% of basal level), Mean", "setting": "[1]; 1.5 mpk, Day 119", "result": "31.6 % of basal level"},
      {"measurement": "Plasma Kallikrein Protein Levels (% of basal level), Mean", "setting": "[1]; 1.5 mpk, Day 147", "result": "32.1 % of basal level"},
      {"measurement": "Plasma Kallikrein Protein Levels (% of basal level), Mean", "setting": "[1]; 1.5 mpk, Day 161", "result": "35.8 % of basal level"},
      {"measurement": "Plasma Kallikrein Protein Levels (% of basal level), Mean", "setting": "[1]; 1.5 mpk, Day 180", "result": "33.8 % of basal level"},
      {"measurement": "Plasma Kallikrein Protein Levels (% of basal level), Mean", "setting": "[1]; 1.5 mpk, Day 238", "result": "27.4 % of basal level"},
      {"measurement": "Plasma Kallikrein Protein Levels (% of basal level), Mean", "setting": "[1]; 1.5 mpk, Day 252", "result": "27.9 % of basal level"},
      {"measurement": "Plasma Kallikrein Protein Levels (% of basal level), Mean", "setting": "[1]; 1.5 mpk, Day 266", "result": "28.7 % of basal level"},
      {"measurement": "Plasma Kallikrein Protein Levels (% of basal level), Mean", "setting": "[1]; 1.5 mpk, Day 280", "result": "33.7 % of basal level"},
      {"measurement": "Plasma Kallikrein Protein Levels (% of basal level), Mean", "setting": "[1]; 1.5 mpk, Day 294", "result": "30.4 % of basal level"},
      {"measurement": "Plasma Kallikrein Protein Levels (% of basal level), Mean", "setting": "[1]; 1.5 mpk, Day 308", "result": "20.6 % of basal level"},
      {"measurement": "Plasma Kallikrein Protein Levels (% of basal level), Mean", "setting": "[1]; 1.5 mpk, Day 326", "result": "29.7 % of basal level"},
      {"measurement": "Plasma Kallikrein Protein Levels (% of basal level), Mean", "setting": "[1]; 1.5 mpk, Day 333", "result": "30.9 % of basal level"},
      {"measurement": "Plasma Kallikrein Protein Levels (% of basal level), Mean", "setting": "[1]; 1.5 mpk, Day 347", "result": "26 % of basal level"},
      {"measurement": "Plasma Kallikrein Protein Levels (% of basal level), Mean", "setting": "[1]; 1.5 mpk, Day 365", "result": "22.7 % of basal level"},
      {"measurement": "Plasma Kallikrein Protein Levels (% of basal level), Mean", "setting": "[1]; 3 mpk, Day 14", "result": "27.1 % of basal level"},
      {"measurement": "Plasma Kallikrein Protein Levels (% of basal level), Mean", "setting": "[1]; 3 mpk, Day 28", "result": "16.9 % of basal level"},
      {"measurement": "Plasma Kallikrein Protein Levels (% of basal level), Mean", "setting": "[1]; 3 mpk, Day 42", "result": "16 % of basal level"},
      {"measurement": "Plasma Kallikrein Protein Levels (% of basal level), Mean", "setting": "[1]; 3 mpk, Day 56", "result": "15.4 % of basal level"},
      {"measurement": "Plasma Kallikrein Protein Levels (% of basal level), Mean", "setting": "[1]; 3 mpk, Day 70", "result": "15.4 % of basal level"},
      {"measurement": "Plasma Kallikrein Protein Levels (% of basal level), Mean", "setting": "[1]; 3 mpk, Day 84", "result": "17.1 % of basal level"},
      {"measurement": "Plasma Kallikrein Protein Levels (% of basal level), Mean", "setting": "[1]; 3 mpk, Day 105", "result": "22.3 % of basal level"},
      {"measurement": "Plasma Kallikrein Protein Levels (% of basal level), Mean", "setting": "[1]; 3 mpk, Day 119", "result": "18.1 % of basal level"},
      {"measurement": "Plasma Kallikrein Protein Levels (% of basal level), Mean", "setting": "[1]; 3 mpk, Day 147", "result": "18.3 % of basal level"},
      {"measurement": "Plasma Kallikrein Protein Levels (% of basal level), Mean", "setting": "[1]; 3 mpk, Day 161", "result": "7.5 % of basal level"},
      {"measurement": "Plasma Kallikrein Protein Levels (% of basal level), Mean", "setting": "[1]; 3 mpk, Day 180", "result": "18 % of basal level"},
      {"measurement": "Plasma Kallikrein Protein Levels (% of basal level), Mean", "setting": "[1]; 3 mpk, Day 238", "result": "16.4 % of basal level"},
      {"measurement": "Plasma Kallikrein Protein Levels (% of basal level), Mean", "setting": "[1]; 3 mpk, Day 252", "result": "15.6 % of basal level"},
      {"measurement": "Plasma Kallikrein Protein Levels (% of basal level), Mean", "setting": "[1]; 3 mpk, Day 266", "result": "21.8 % of basal level"},
      {"measurement": "Plasma Kallikrein Protein Levels (% of basal level), Mean", "setting": "[1]; 3 mpk, Day 280", "result": "24.6 % of basal level"},
      {"measurement": "Plasma Kallikrein Protein Levels (% of basal level), Mean", "setting": "[1]; 3 mpk, Day 294", "result": "24.6 % of basal level"},
      {"measurement": "Plasma Kallikrein Protein Levels (% of basal level), Mean", "setting": "[1]; 3 mpk, Day 308", "result": "27.6 % of basal level"},
      {"measurement": "Plasma Kallikrein Protein Levels (% of basal level), Mean", "setting": "[1]; 3 mpk, Day 326", "result": "23.8 % of basal level"},
      {"measurement": "Plasma Kallikrein Protein Levels (% of basal level), Mean", "setting": "[1]; 3 mpk, Day 333", "result": "25.3 % of basal level"},
      {"measurement": "Plasma Kallikrein Protein Levels (% of basal level), Mean", "setting": "[1]; 3 mpk, Day 347", "result": "22.1 % of basal level"},
      {"measurement": "Plasma Kallikrein Protein Levels (% of basal level), Mean", "setting": "[1]; 3 mpk, Day 365", "result": "11.4 % of basal level"},
      {"measurement": "Plasma Kallikrein Protein Levels (% of basal level), Mean", "setting": "[1]; 6 mpk, Day 14", "result": "13.7 % of basal level"},
      {"measurement": "Plasma Kallikrein Protein Levels (% of basal level), Mean", "setting": "[1]; 6 mpk, Day 28", "result": "6.6 % of basal level"},
      {"measurement": "Plasma Kallikrein Protein Levels (% of basal level), Mean", "setting": "[1]; 6 mpk, Day 42", "result": "6.3 % of basal level"},
      {"measurement": "Plasma Kallikrein Protein Levels (% of basal level), Mean", "setting": "[1]; 6 mpk, Day 56", "result": "5.8 % of basal level"},
      {"measurement": "Plasma Kallikrein Protein Levels (% of basal level), Mean", "setting": "[1]; 6 mpk, Day 70", "result": "5.8 % of basal level"},
      {"measurement": "Plasma Kallikrein Protein Levels (% of basal level), Mean", "setting": "[1]; 6 mpk, Day 84", "result": "6.7 % of basal level"},
      {"measurement": "Plasma Kallikrein Protein Levels (% of basal level), Mean", "setting": "[1]; 6 mpk, Day 105", "result": "7.6 % of basal level"},
      {"measurement": "Plasma Kallikrein Protein Levels (% of basal level), Mean", "setting": "[1]; 6 mpk, Day 119", "result": "6.4 % of basal level"},
      {"measurement": "Plasma Kallikrein Protein Levels (% of basal level), Mean", "setting": "[1]; 6 mpk, Day 147", "result": "6.7 % of basal level"},
      {"measurement": "Plasma Kallikrein Protein Levels (% of basal level), Mean", "setting": "[1]; 6 mpk, Day 161", "result": "7.4 % of basal level"},
      {"measurement": "Plasma Kallikrein Protein Levels (% of basal level), Mean", "setting": "[1]; 6 mpk, Day 180", "result": "2.9 % of basal level"},
      {"measurement": "Plasma Kallikrein Protein Levels (% of basal level), Mean", "setting": "[1]; 6 mpk, Day 238", "result": "3.7 % of basal level"},
      {"measurement": "Plasma Kallikrein Protein Levels (% of basal level), Mean", "setting": "[1]; 6 mpk, Day 252", "result": "3.9 % of basal level"},
      {"measurement": "Plasma Kallikrein Protein Levels (% of basal level), Mean", "setting": "[1]; 6 mpk, Day 266", "result": "3.7 % of basal level"},
      {"measurement": "Plasma Kallikrein Protein Levels (% of basal level), Mean", "setting": "[1]; 6 mpk, Day 280", "result": "6.3 % of basal level"},
      {"measurement": "Plasma Kallikrein Protein Levels (% of basal level), Mean", "setting": "[1]; 6 mpk, Day 294", "result": "7.4 % of basal level"},
      {"measurement": "Plasma Kallikrein Protein Levels (% of basal level), Mean", "setting": "[1]; 6 mpk, Day 308", "result": "6.2 % of basal level"},
      {"measurement": "Plasma Kallikrein Protein Levels (% of basal level), Mean", "setting": "[1]; 6 mpk, Day 326", "result": "8 % of basal level"},
      {"measurement": "Plasma Kallikrein Protein Levels (% of basal level), Mean", "setting": "[1]; 6 mpk, Day 333", "result": "7.8 % of basal level"},
      {"measurement": "Plasma Kallikrein Protein Levels (% of basal level), Mean", "setting": "[1]; 6 mpk, Day 347", "result": "7.3 % of basal level"},
      {"measurement": "Plasma Kallikrein Protein Levels (% of basal level), Mean", "setting": "[1]; 6 mpk, Day 365", "result": "4.3 % of basal level"}
    ]}
  ]
}
